One assay has as its target wild-type human uPAR (human, UniProt Q03405 23-305, GPI-anchor on Gly283). Description: cell-based or functional assay.
Assay [1] deals with T1, pro-uPA (UniProt P00749 21-431, limits assumed, Eu3+-label in the cell binding competition assay).
T1 construct: also called immobilized uPA
Description: soluble receptor titrated on immobilized pro-uPA; detection 13F6 + Eu3+ anti-mouse, time-resolved fluorescence. As for the experimental part:
The bound material was detected by measuring time-resolved fluorescence intensity. Specific binding was calculated by subtracting the non-specific binding measured in uncoated wells incubated with identical samples. […] The binding curve and dissociation constant (Kd) were calculated by non-linear regression (four-parameter fit) using the Prism 5.0 software suite.
ON. […] The Eu³⁺-label was detected by measuring time-resolved fluorescence intensity using an Envision Xcite plate reader (Perkin Elmer Corp.) employing the DELFIA label protocol. To calculate the specific binding, non-specific binding measured in uncoated wells, incubated with identical samples, was subtracted from the total binding measured in coated wells.

For assay [2], the target named is T1, pro-uPA. Described as above. As for the experimental part:
The bound material was detected by measuring time-resolved fluorescence intensity. Specific binding was calculated by subtracting the non-specific binding measured in uncoated wells incubated with identical samples. The data shown are means±SD from a representative experiment. The binding curve, equilibrium dissociation constant (Kd, in nanomolar units) and maximum binding capacity (Bmax, in CPS units (counts per second)) were calculated by non-linear regression (four-parameter fit) using the Prism 5.0 software suite.
This is another data set of the same source.

The next assay has as its target T2, vitronectin (UniProt P04004 20-478, limits assumed).
T2 construct: also called VN; immobilized VN
Description: soluble receptor titrated on immobilized VN without pro-uPA; detection 13F6 + Eu3+ anti-mouse, time-resolved fluorescence. Here is the method:
The data are from a single experiment and presented as means±SD. The binding curve and Kd were calculated by non-linear regression. […] The data are from a single experiment and are represented as means±SD. The binding curve and Kd were calculated by non-linear regression.

The results in this text go back to patent US20140161803A1 (IFOM FONDAZIONE ISTITUO FIRC DI ONCOLOGIA MOLECOLARE, published 2014).

Where two headings read alike, the source gives them in different places.

What is called Kd is the constant that tells how readily two partners part at equilibrium.

T2 sequence (P04004 20-478 limits assumed): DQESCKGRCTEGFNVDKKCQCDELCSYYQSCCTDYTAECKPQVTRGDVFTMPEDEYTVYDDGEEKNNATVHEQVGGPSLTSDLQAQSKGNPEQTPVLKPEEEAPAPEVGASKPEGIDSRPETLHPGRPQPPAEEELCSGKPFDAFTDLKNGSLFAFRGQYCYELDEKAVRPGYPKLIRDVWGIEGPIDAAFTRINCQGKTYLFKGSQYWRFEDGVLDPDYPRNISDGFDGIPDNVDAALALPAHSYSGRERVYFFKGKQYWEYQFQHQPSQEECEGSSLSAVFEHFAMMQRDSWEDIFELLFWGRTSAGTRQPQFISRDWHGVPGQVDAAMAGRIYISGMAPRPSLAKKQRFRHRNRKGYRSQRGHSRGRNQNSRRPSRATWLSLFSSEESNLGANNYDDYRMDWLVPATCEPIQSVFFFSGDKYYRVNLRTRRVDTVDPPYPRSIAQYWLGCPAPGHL

B1: 13D11 (antibody, V domains shown)
VH: ELMKPGASVKLSCKATGYTFTDYWIEWVKQRPGHGLEWIGEILPGRDSTDYNENFKGKATFTADTSSNTAYMQLSSLTTEDSAIYYCARDYYGHISNWYFDVWGTGTTVTVS
VL: SLSASLGERVSLTCRASQDIGSSLNWLQQEPDGTIKRLIYATSSLDSGVPKRFSGSRSGSDYSLTISSLESVDFVVYYCLQYATSPYTFGGGTKLEIKR
B1: in the assay with wild-type human uPAR, the “% max inhibition (pro-uPA pre-treat.)” value came out at 82% and the “% max inhibition (veh. pre-treat.)” value came to 38%.

B2: AL6 (antibody, V domains shown)
VH: ELMKPGASVKLSCKATGYSFTGYWIEWVKQRPGHGLEWIGEILPGSDRTNYNEKFKGKATFTADTSSNTAYMQLSSLTTEDSAIYYCARDDYDRGLYIMDYWGQGTSVTVS
VL: SLSASLGERVSLTCRASQDIGTSLNWLQQEPDGTIRRLIYATSSLPPGVPKRFSGSRSGSDYSLTISSLESEDFVNYYCLQYATSPYTFGGGTKLEIKR
Consider B2, for which, in the assay with wild-type human uPAR, the “% max inhibition (pro-uPA pre-treat.)” value was less than 20% and the “% max inhibition (veh. pre-treat.)” value was less than 20%.

B3: 19.10 (antibody, V domains shown)
VH: ELVKPGASVKLSCKATGYTFTVYWMEWVRQRPGHGLEWIGEILPGSGRTNYNERFKGKATFTADTSSNTAYMQLSSLTTEDSAIYYCARDYSGDTSTGYFDVWGTGTTVTVS
VL: SLSASLGERVSLTCRASQDIGSGLSWLQQEPDGTIKRLIYATSSLDSGVPKRFSGSRSGSDYSLTISSLESEDFVDYYCLQYATSPYTFGGGTKLEIKR
Consider B3, for which, in the assay with wild-type human uPAR, the “% max inhibition (pro-uPA pre-treat.)” value came to 79% and the “% max inhibition (veh. pre-treat.)” value came out at 67%.

B4: BE18 (antibody, mouse IgG1, V domains shown)
VH: ELVKPGASVKIICKASGYIFTDYNMDWVKQSHGKSLEWIGEINPNNGDTIYNQNFKGKATLTVDKSSSTAHMALRSLTSEDTAVYYCTRKGGLRAWFVYWGQGTLVTVS
VL: MSASPGEKVTMTCRASSSVSSSYLHWYQQKSGASPKVWIYSTSNLASGVPARFSGSGSGTSYSLTISSVEAEDAATYYCQQYSGYPLTFGSGTKLEIQ
B4: in the assay with wild-type human uPAR, the “% max inhibition (pro-uPA pre-treat.)” value was less than 20% and the “% max inhibition (veh. pre-treat.)” value was determined as 37%.

B5: uPARmyc (receptor)
chain: LRCMQCKTNGDCRVEECALGQDLCRTTIVRLWEEGEELELVEKSCTHSEKTNRTLSYRTGLKITSLTEVVCGLDLCNQGNSGRAVTYSRSRYLECISCGSSDMSCERGRHQSLQCRSPEEQCLDVVTHWIQEGEEGRPKDDRHLRGCGYLPGCPGSNGFHNNDTFHFLKCCNTTKCNEGPILELENLPQNGRQCYSCKGNSTHGCSSEETFLIDCRGPMNQCLVATGTHEPKNQSYMVRGCATASMCQHAHLGDAFSMNHIDVSCCTKSGCNHPGGEQKLISEEDL
notes: monomeric control receptor; used as concentrated CHO conditioned medium without purification; also called soluble monomeric form of uPAR with a C-terminal myc-tag
In the case of B5, the results for the Kd with pro-uPA [1] and in the assay with pro-uPA [2] were 1.1 nM and 11 nM, respectively.

B6: ^GFDuPARmyc (receptor)
chain: SNELHQVPSNCDCLNGGTCVSNKYFSNIHWCNCPKKFGGQHCEIDKSKGGAGAAGGLRCMQCKTNGDCRVEECALGQDLCRTTIVRLWEEGEELELVEKSCTHSEKTNRTLSYRTGLKITSLTEVVCGLDLCNQGNSGRAVTYSRSRYLECISCGSSDMSCERGRHQSLQCRSPEEQCLDVVTHWIQEGEEGRPKDDRHLRGCGYLPGCPGSNGFHNNDTFHFLKCCNTTKCNEGPILELENLPQNGRQCYSCKGNSTHGCSSEETFLIDCRGPMNQCLVATGTHEPKNQSYMVRGCATASMCQHAHLGDAFSMNHIDVSCCTKSGCNHPGGEQKLISEEDL
notes: used as concentrated CHO conditioned medium; also called soluble GFDuPAR
B6: the values for the Kd with pro-uPA [1] and in the assay with vitronectin were 28 nM and 0.62 nM, respectively.

B7: 13F6 (antibody, mouse IgG1, V domains shown)
VH: ELVKPGASVELSCKASGYTFTSYWMNWVKQRPGRGLEWIGRIAPNSGGTQYSGKFKTKATLTVDKSSSTAYMQLSSLTSEDSAVYYCARGDYFGHFDYWGQGTTLTVS
VL: SLSASLGGKVTITCKASQDINNYIAWYQHKPGKGPRLLIHYTSILQPGIPSRFSGSGSGRDYSFSISNLEPEDIATYYCLQCDNLLTFGAGTKLELK
For B7, in the assay with wild-type human uPAR, the “% max inhibition (pro-uPA pre-treat.)” value was less than 20% and the “% max inhibition (veh. pre-treat.)” value is less than 20%.
